T1: human BCMA on cells (endogenous, on multiple myeloma and lymphoma cell lines) (human, UniProt Q02223 1-184)
T1 sequence: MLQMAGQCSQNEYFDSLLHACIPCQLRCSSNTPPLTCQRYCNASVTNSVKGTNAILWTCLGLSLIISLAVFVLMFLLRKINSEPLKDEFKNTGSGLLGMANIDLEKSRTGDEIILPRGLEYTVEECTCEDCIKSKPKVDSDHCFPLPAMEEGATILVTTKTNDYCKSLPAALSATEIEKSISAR

T2: human BCMA-MMH (extracellular domain of human BCMA with C-terminal myc-myc-hexahistidine tag) (human)
T2 construct: Monomeric antigen; the entry holds the ectodomain and the myc-myc-His tag; also called hBCMA.mmh; hBCMA.mmH
T2 chain: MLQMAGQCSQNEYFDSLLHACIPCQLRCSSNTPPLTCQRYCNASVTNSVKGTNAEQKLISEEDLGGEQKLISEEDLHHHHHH

T3: mouse BCMA-MFC (BCMA with C-terminal mFc tag) (mouse)
T3 construct: Tested at 30 nM only
T3 chain: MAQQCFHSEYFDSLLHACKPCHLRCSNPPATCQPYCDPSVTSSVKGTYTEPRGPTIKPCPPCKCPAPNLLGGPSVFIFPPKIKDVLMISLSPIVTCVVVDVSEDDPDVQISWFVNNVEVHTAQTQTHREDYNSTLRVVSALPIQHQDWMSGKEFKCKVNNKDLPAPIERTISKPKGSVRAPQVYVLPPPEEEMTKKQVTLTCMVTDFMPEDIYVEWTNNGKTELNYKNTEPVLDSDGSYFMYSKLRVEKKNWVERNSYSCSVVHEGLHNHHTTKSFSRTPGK

T4: human BCMA-MFC (extracellular domain of human BCMA with C-terminal mFc tag) (human)
T4 construct: also called hBCMA.mFc
T4 chain: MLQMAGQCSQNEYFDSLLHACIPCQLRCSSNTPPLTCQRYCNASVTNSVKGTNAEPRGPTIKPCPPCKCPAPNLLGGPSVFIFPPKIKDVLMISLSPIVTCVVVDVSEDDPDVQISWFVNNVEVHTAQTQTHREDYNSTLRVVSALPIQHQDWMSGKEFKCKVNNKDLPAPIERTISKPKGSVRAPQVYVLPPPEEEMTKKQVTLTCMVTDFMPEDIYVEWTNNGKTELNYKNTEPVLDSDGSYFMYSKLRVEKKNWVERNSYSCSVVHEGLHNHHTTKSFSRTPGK


Tests used:
[1] = target: T1, human BCMA on cells (endogenous, on …); assay: cell-based or functional assay
[2] = target: T2, human BCMA-MMH (extracellular domain of …); assay: SPR, Biacore, mAb captured by anti-hFc, 25 C
Description: (§1) The CM5 Biacore sensor surface was derivatized by amine coupling with a monoclonal mouse anti-human Fc antibody (GE, #BR-1008-39) to capture purified anti-BCMA mAbs and anti-BCMA×anti-CD3 bispecific mAbs. All Biacore binding studies were performed in a buffer composed of 0.01M HEPES pH 7.4, 0.15M NaCl, 3 mM EDTA, 0.05% v/v Surfactant P20 (HBS-ET running buffer). […] Antigen samples were then injected over the anti-BCMA and anti-BCMA×anti-CD3 bispecific mAbs captured surfaces at a flow rate of 30 μL/minute. Antibody-reagent association was monitored for 5 minutes while dissociation in HBS-ET running buffer was monitored for 10 minutes. All of the binding kinetics experiments were performed at 25° C. Kinetic association (kₐ) and dissociation (kd) rate constants were determined by fitting the real-time sensorgrams to a 1:1 binding model using Scrubber 2.0c curve fitting software. Binding dissociation equilibrium constants (KD) and dissociative half-lives (t½) were calculated from the kinetic rate constants as: […]

[3] = target: T3, mouse BCMA-MFC (BCMA with C-terminal …); assay: SPR, Biacore, mAb captured by anti-hFc, 25 C
Description: as §1

[4] = target: T5, monkey BCMA-MFC (monkey BCMA with C-terminal mFc tag) (monkey); assay: SPR, Biacore, mAb captured by anti-hFc, 25 C
T5 construct: also called mfBCMA.mFc
T5 sequence (chain, as listed by the source limits assumed): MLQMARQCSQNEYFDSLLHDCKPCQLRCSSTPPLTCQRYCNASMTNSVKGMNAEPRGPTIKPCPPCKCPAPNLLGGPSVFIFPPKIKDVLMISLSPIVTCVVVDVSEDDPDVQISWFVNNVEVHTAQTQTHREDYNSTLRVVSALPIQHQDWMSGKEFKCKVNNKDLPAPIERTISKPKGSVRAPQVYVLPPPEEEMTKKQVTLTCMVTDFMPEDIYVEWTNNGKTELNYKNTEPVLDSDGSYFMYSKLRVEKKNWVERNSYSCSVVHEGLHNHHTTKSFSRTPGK
Description: as §1

[5] = target: T4, human BCMA-MFC (extracellular domain of …); assay: SPR, Biacore, mAb captured by anti-hFc, 25 C
Description: as §1

[6] = target: T1, human BCMA on cells (endogenous, on …); assay: cell-based or functional assay; remark: listed apart in the source
[7] = target: T1, human BCMA on cells (endogenous, on …); assay: cell-based or functional assay; remark: listed apart in the source
[8] = target: T6, human CD3 on Jurkat cells and primary human CD8+ T cells (human, UniProt P07766 23-207; P04234 22-171; P20963 22-164; P09693 23-182); assay: flow cytometry on primary human CD8+ T cells, n=1
T6 construct: Endogenous CD3 complex on cells; also called hCD3; Jurkat-hCD3
T6 sequence (P07766 23-207 limits assumed, chain 1 of 4): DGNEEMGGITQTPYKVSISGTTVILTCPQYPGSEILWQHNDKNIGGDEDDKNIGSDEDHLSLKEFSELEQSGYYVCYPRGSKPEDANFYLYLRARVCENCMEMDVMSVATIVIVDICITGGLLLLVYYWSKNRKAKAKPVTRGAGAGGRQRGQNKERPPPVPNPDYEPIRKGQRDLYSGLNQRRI
T6 sequence (P04234 22-171 limits assumed, chain 2 of 4): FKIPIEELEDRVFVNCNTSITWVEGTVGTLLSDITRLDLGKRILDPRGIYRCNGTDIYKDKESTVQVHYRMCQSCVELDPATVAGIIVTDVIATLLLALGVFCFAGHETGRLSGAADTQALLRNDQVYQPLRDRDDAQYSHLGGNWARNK
T6 sequence (P20963 22-164 limits assumed, chain 3 of 4): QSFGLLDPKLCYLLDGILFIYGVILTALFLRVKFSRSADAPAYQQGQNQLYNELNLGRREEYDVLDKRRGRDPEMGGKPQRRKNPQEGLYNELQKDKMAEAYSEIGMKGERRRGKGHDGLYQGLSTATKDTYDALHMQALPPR
T6 sequence (P09693 23-182 limits assumed, chain 4 of 4): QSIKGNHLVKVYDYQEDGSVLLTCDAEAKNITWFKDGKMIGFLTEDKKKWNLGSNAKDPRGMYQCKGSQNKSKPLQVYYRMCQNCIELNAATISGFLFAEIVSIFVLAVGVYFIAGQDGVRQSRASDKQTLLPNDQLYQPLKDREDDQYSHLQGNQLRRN
Description: Flow cytometric analysis was utilized to determine binding of BCMA×CD3 bispecific antibodies to human and cynomolgus CD3 (Jurkat cells, mfCD3 engineered Jurkat cells, primary human CD8+ and cynomolgus CD8+ T cells). Briefly, 1e05 cells/well were incubated in the presence of FACS wash with block (PBS+1% filtered FBS+5% mouse serum) with a serial dilution of BCMA×CD3 and control antibodies for 30 minutes on ice. After incubation, the cells were washed twice with cold FACS wash (PBS+1% filtered FBS) and bound antibody was detected by incubating with Alexa647-conjugated anti-human secondary antibody on ice for an additional 30 minutes. Wells containing no antibody or secondary only were used as a control. For the detection of monkey and human T cells, a cocktail of human and cynomolgus cross-reactive antibodies to CD4, CD8 and CD16 was added to the anti-human secondary. After incubation, cells were washed, re-suspended in 200 μL cold PBS containing 1% filtered FBS and analyzed by flow cytometry on a BD FACS Canto II. Cells were gated by FSC-H by FSC-A to select singlet events, followed by side and forward scatters to select for live events. For monkey T cells, additional gating on CD8+/CD16− cells was performed.
EC50 values for FACS binding were calculated using 4-parameter non-linear regression analysis in Prism software.

Row | Binder | median EC50 of % Survival, Molp8 target cells, human effector cells (FACS cytotoxicity) [1] [nM] | median EC50 of % Survival, RPMI8226 target cells, human effector cells (FACS cytotoxicity) [1] [nM] | median EC50 of % T activation (CD25 on CD8+ T cells), Molp8 target cells, human effector cells [1] [nM] | median EC50 of % T activation (CD25 on CD8+ T cells), RPMI8226 target cells, human effector cells [1] [nM] | 90 nM hBCMA.mmh Bind (RU) [2] [RU] | Kd [2] [nM] | koff [2] [s⁻¹] | kon [2] [M⁻¹ s⁻¹] | t½ [2] [h] | 30 nM mfBCMA.mFc Bind (RU) (mouse BCMA-MFC by the table's title) [3] | binding result [3] | 30 nM mfBCMA.mFc Bind (RU) [4] [RU] | Kd [4] [nM] | koff [4] [s⁻¹] | kon [4] [M⁻¹ s⁻¹] | t½ [4] [h] | 30 nM hBCMA.mFc Bind (RU) [5] [RU] | Kd [5] [nM] | koff [5] [s⁻¹] | kon [5] [M⁻¹ s⁻¹] | other results
1 | REGN5458 (bsAb25441D), anti-BCMA x anti-CD3 bispecific antibody (bispecific antibody, V domains shown, Two different heavy chains paired with a common light chain; human Fc (captured by anti-human Fc in SPR); also called bsAb25441D9; mAb25441D) VH 1: EVQLVESGGGLVQPGGSLRLSCAASGFTFSNFWMTWVRQAPGKGLEWVANMNQDGSEKYYVDSVKGRFTISRDNAKSSLYLQMNSLRAEDTAVYYCARDREYCISTSCYDDFDYWGQGTLVTVSS VH 2: EVQLVESGGGLVQPGRSLRLSCAASGFTFDDYSMHWVRQAPGKGLEWVSGISWNSGSKGYADSVKGRFTISRDNAKNSLYLQMNSLRAEDTALYYCAKYGSGYGKFYHYGLDVWGQGTTVTVSS VL: not shown | 0.707 | 0.0345 | 1.1 | 0.0649 | 19.9 | 1.06 | 0.000874 | 827000 | 0.22 | 2.7 | no binding (tested: 30 nM) | 108 | 0.167 | 8.8e-05 | 528000 | 2.19 | 107 | ≤ 0.0223 | ≤ 1e-05 | 448000 | t½ [5]: ≤ 19.2 h; median EC50 of % Survival, H929 target cells, cynomolgus effector cells (FACS cytotoxicity) [6]: 0.0234 nM; median EC50 of % T activation, H929 target cells, cynomolgus effector cells [6]: 0.0683 nM; median EC50 of % Survival, H929 target cells, human effector cells (FACS cytotoxicity) [7]: 0.103 nM; median EC50 of % Survival, MM1S target cells, human effector cells (FACS cytotoxicity) [7]: 0.0646 nM; median EC50 of % Survival, U266 target cells, human effector cells (FACS cytotoxicity) [7]: 0.328 nM; median EC50 of % T activation (CD25 on CD8+ T cells), H929 target cells, human effector cells [7]: 0.211 nM; median EC50 of % T activation (CD25 on CD8+ T cells), MM1S target cells, human effector cells [7]: 0.0706 nM; median EC50 of % T activation (CD25 on CD8+ T cells), U266 target cells, human effector cells [7]: 0.107 nM; EC50 [8]: 32 nM
2 | REGN5459 (bsAb25442D), anti-BCMA x anti-CD3 bispecific antibody (bispecific antibody, V domains shown, also called mAb25442D; mAb25442D-A647) VH 1: EVQLVESGGGLVQPGGSLRLSCAASGFTFSNFWMTWVRQAPGKGLEWVANMNQDGSEKYYVDSVKGRFTISRDNAKSSLYLQMNSLRAEDTAVYYCARDREYCISTSCYDDFDYWGQGTLVTVSS VH 2: EVQLVESGGGLVQPGRSLRLSCAASGFTFDDYSMHWVRQAPGKGLEWVSGISWNSGSIGYADSVKGRFTISRDNAKNSLYLQMNSLRAEDTALYYCAKYGSGYGKFYYYGMDVWGQGTTVTVSS VL: not shown | 1.36 | 0.106 | 6.47 | 0.75 | 17 | 1.38 | 0.00101 | 730000 | 0.192 | 2.4 | no binding (tested: 30 nM) | 97 | 0.148 | 7.15e-05 | 482000 | 2.69 | 96.8 | ≤ 0.0223 | ≤ 1e-05 | 449000 | t½ [5]: ≤ 19.2 h; median EC50 of % Survival, H929 target cells, cynomolgus effector cells (FACS cytotoxicity) [6]: 0.0692 nM; median EC50 of % T activation, H929 target cells, cynomolgus effector cells [6]: 0.158 nM; median EC50 of % Survival, H929 target cells, human effector cells (FACS cytotoxicity) [7]: 0.301 nM; median EC50 of % Survival, MM1S target cells, human effector cells (FACS cytotoxicity) [7]: 0.288 nM; median EC50 of % Survival, U266 target cells, human effector cells (FACS cytotoxicity) [7]: 1.66 nM; median EC50 of % T activation (CD25 on CD8+ T cells), H929 target cells, human effector cells [7]: 0.3 nM; median EC50 of % T activation (CD25 on CD8+ T cells), MM1S target cells, human effector cells [7]: 0.458 nM; median EC50 of % T activation (CD25 on CD8+ T cells), U266 target cells, human effector cells [7]: 0.469 nM; EC50 [8]: 4710 nM

— patent publication US20220306758A1 (Regeneron, published 2022)
